Biological target: MBP-MT2 fusion protein (maltose binding protein fused to two copies of metallothionein), without gold (mouse) (UniProt P02802)
Experiment: STEM mass measurement (PCMass25); expected 260 kDa for the antibody with two MBP-MT2

Sequence of UniProt P02802 (P02802 other isoform, or with tags, fused parts or gaps): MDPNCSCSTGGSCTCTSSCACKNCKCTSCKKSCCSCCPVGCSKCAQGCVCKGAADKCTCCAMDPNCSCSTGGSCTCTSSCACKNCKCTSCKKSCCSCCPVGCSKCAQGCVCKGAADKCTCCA

Substance: commercially available monoclonal IgG2a MBP antibody (New England Biolabs)
- mean STEM mass of the antibody complex particles: 205 kDa

Reference: patent US20090239215A1
